Measured values published in the supplement of paper PMC10724198.
± gives the standard deviation of the averaged measurements.
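Further: PSI is a weighted mean of sequencing reads over stability bins, variants kept only with over 10 reads, mCherry proximal and sfGFP distal, peptide attached via GGGS linker.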

The sequences below were run on Saccharomyces cerevisiae (assay: protein stability index of tFT-peptide fusion (C-terminal peptide) (PSI (0-1 scale)); higher = more stable (slower turnover)). Conditions: genetic background: wild type; temperature: 30 C.
For PSGDYVVLTTVS, the protein stability index was 0.6901 ± 0.0038. PSGFLFPLSPPA was tested, and the protein stability index was 0.698 ± 0.01. PSGLLPILRLFL was tested, and the protein stability index was 0.681 ± 0.047. With PSGNGAPRVHRK the protein stability index was 0.65 ± 0.011. PSHLPRARRPPR was tested, and the protein stability index was 0.686 ± 0.011. Sequence PSHLWWDCIRKG has a protein stability index of 0.625 ± 0.049. PSHPAPGPSTRQ was tested, and the protein stability index was 0.673 ± 0.032. For PSHPPLLLPLLL, the protein stability index was 0.714 ± 0.022. In the case of PSHSRSRPPPYL, the protein stability index is reported as 0.742 ± 0.1. With PSKMPNSTLRAE the protein stability index was 0.682 ± 0.065. For PSKTQKQYKTVA, the protein stability index was 0.644 ± 0.094. For PSLHRPPLLPCP, the protein stability index was 0.674 ± 0.013. In the case of PSLLLPPLPLYT, the protein stability index is reported as 0.662 ± 0.031. Work on PSLLPPATLLPI yielded a protein stability index of 0.718 ± 0.072. PSLLSHAPSPRR showed a protein stability index of 0.682 ± 0.016. PSLPLPSPPPFP gave a protein stability index of 0.643 ± 0.1. In the case of PSLPPHPPSPLP, the protein stability index is reported as 0.742 ± 0.053. For PSLPPPSPSTAP, the protein stability index was 0.713 ± 0.03. Sequence PSLPRLPLCPLP has a protein stability index of 0.704 ± 0.018. In the case of PSLSPLPPRTTS, the protein stability index is reported as 0.732 ± 0.048. PSLSYSRPPHPS was tested, and the protein stability index was 0.681 ± 0.027. Sequence PSPGPPHPPPLF has a protein stability index of 0.713 ± 0.063. For PSPGPPLPPPLF, the protein stability index was 0.7625 ± 0.0075. With PSPLPGYFFTLS the protein stability index was 0.627 ± 0.12. Sequence PSPLPPPAPHPL has a protein stability index of 0.752 ± 0.26. PSPLPSPPPPPP gave a protein stability index of 0.625 ± 0.0074. Sequence PSPLPTALLTNR has a protein stability index of 0.644 ± 0.14. With PSPLSPEHPLPI the protein stability index was 0.72334 ± 0.00035. PSPPLLPPPLYT showed a protein stability index of 0.658 ± 0.014. Sequence PSPPPFPPIPFC has a protein stability index of 0.708 ± 0.048. In the case of PSPPPPPPTTVL, the protein stability index is reported as 0.718 ± 0.021. Sequence PSPPPSSPPPRS has a protein stability index of 0.686 ± 0.051. PSPPRPPLPART showed a protein stability index of 0.763 ± 0.028. For PSPPVPPLPPVF, the protein stability index was 0.55 ± 0.032. PSPPYPPPSLPH was tested, and the protein stability index was 0.69 ± 0.044. Work on PSPPYSRPPLPP yielded a protein stability index of 0.698 ± 0.049. Work on PSPRISLSVFPC yielded a protein stability index of 0.646 ± 0.062. PSPRSPVPLTPS showed a protein stability index of 0.708 ± 0.015. Work on PSPRSSPPCSAS yielded a protein stability index of 0.693 ± 0.039. Work on PSPSPNALALLR yielded a protein stability index of 0.71439 ± 0.00045. In the case of PSPSPPPLRSPL, the protein stability index is reported as 0.623 ± 0.016. For PSQPLPPSRHRP, the protein stability index was 0.616 ± 0.037. In the case of PSRPPALPPPAT, the protein stability index is reported as 0.721 ± 0.014. Work on PSRRPAVLPPLI yielded a protein stability index of 0.6719 ± 0.0015. For PSRSCSAPLHPN, the protein stability index was 0.78 ± 0.056. Work on PSRTTPARPPLT yielded a protein stability index of 0.662 ± 0.061. In the case of PSSEGHMEDTAA, the protein stability index is reported as 0.684 ± 0.018. In the case of PSSPPPPSATPP, the protein stability index is reported as 0.701 ± 0.091. Work on PSSTLRLSPSSL yielded a protein stability index of 0.728 ± 0.023. PSSVPSTPTPPP gave a protein stability index of 0.657 ± 0.076. PSTAPHLSPPPP gave a protein stability index of 0.731 ± 0.022. PSTRPMLRSQQK was tested, and the protein stability index was 0.66 ± 0.013. PSVPPLQPPHSV showed a protein stability index of 0.697 ± 0.031. Work on PSVVPSLSPLFL yielded a protein stability index of 0.796 ± 0.062. PSVYAASPPLPP showed a protein stability index of 0.68 ± 0.03. For PSYSFQYRLIQD, the protein stability index was 0.712 ± 0.038. In the case of PTDFTPREAIGI, the protein stability index is reported as 0.68 ± 0.087. With PTGYPGPRMMVW the protein stability index was 0.771 ± 0.3. PTHALLGCTCAN gave a protein stability index of 0.681 ± 0.024. Work on PTLRAPLRYGYL yielded a protein stability index of 0.675 ± 0.022. PTPLSRPPTNAA showed a protein stability index of 0.634 ± 0.042. PTPPPGLCTPRH showed a protein stability index of 0.702 ± 0.04. With PTPPSARAPPTT the protein stability index was 0.686 ± 0.032. For PTQVSGIVPAPR, the protein stability index was 0.7732 ± 0.0051. PTRIPRAPGPAQ showed a protein stability index of 0.694 ± 0.025. PTRPPNEPTVHP gave a protein stability index of 0.659 ± 0.066. Work on PTRPSRPPRPPP yielded a protein stability index of 0.598 ± 0.026. Work on PTRRPDGQLHPS yielded a protein stability index of 0.6707 ± 0.0027. Sequence PTRTAYHRQIPT has a protein stability index of 0.773 ± 0.043. In the case of PTRTSHLCLIPP, the protein stability index is reported as 0.67 ± 0.075. Work on PTSDSPSLALPC yielded a protein stability index of 0.71 ± 0.023. PTSPPPPPASPS gave a protein stability index of 0.836 ± 0.18. PTTAPPIPLPSP was tested, and the protein stability index was 0.72 ± 0.035. Work on PTTLCLSDRPQP yielded a protein stability index of 0.721 ± 0.0081. PTTNHLSNRHNI gave a protein stability index of 0.685 ± 0.085. For PTTRSAPPPCIA, the protein stability index was 0.676 ± 0.03. With PTTTLYNPSPPN the protein stability index was 0.742 ± 0.043. In the case of PVEGSTPPPGTT, the protein stability index is reported as 0.614 ± 0.032. PVIGLSMEKARG was tested, and the protein stability index was 0.739 ± 0.1. PVLPFPSPPAAS was tested, and the protein stability index was 0.682 ± 0.078. In the case of PVLPPCLLPTPV, the protein stability index is reported as 0.509 ± 0.093. In the case of PVLPRPNTQSRS, the protein stability index is reported as 0.694 ± 0.027. For PVLSRLHSEVFL, the protein stability index was 0.73 ± 0.081. With PVPSPFMHRAAP the protein stability index was 0.702 ± 0.015. For PVPSRAQTRSRA, the protein stability index was 0.65 ± 0.073. Sequence PVPVLGPESSVH has a protein stability index of 0.67 ± 0.023. With PVQNVGAEVRPA the protein stability index was 0.683 ± 0.0094. In the case of PVSCTLTLPPPH, the protein stability index is reported as 0.65 ± 0.0036. With PVSSPPRPAPSP the protein stability index was 0.677 ± 0.025. PVVDVRFSFRCL showed a protein stability index of 0.644 ± 0.038. PVWLLHIRPPIP showed a protein stability index of 0.681 ± 0.058. For PVYAYYVPCAPR, the protein stability index was 0.645 ± 0.091. PWANRVCFLHMK showed a protein stability index of 0.678 ± 0.037. PWEVEAKNGRDR was tested, and the protein stability index was 0.717 ± 0.032. With PWGGVLGWGLVG the protein stability index was 0.608 ± 0.016. PWGSPLMACRSC was tested, and the protein stability index was 0.694 ± 0.02. PWTAGQGWATIP was tested, and the protein stability index was 0.688 ± 0.04. With PWTAHVWSMVLG the protein stability index was 0.552 ± 0.033. Work on PWWGCTLGGGWG yielded a protein stability index of 0.737 ± 0.063. With PYEPTIALPLLL the protein stability index was 0.683 ± 0.058. PYFFSPIFTRTP showed a protein stability index of 0.712 ± 0.027. For PYFHRRMSLESF, the protein stability index was 0.703 ± 0.013. PYGFNPSANGSS was tested, and the protein stability index was 0.696 ± 0.068. PYHLFLSFSLSR showed a protein stability index of 0.725 ± 0.011. PYPPPPALPSSF showed a protein stability index of 0.667 ± 0.032. PYRLPRSLLFFP showed a protein stability index of 0.6688 ± 0.0045. PYSHFVFGLCEL showed a protein stability index of 0.75 ± 0.096. In the case of PYTPPTSSRDRS, the protein stability index is reported as 0.661 ± 0.019. For QADAPPGDTNTL, the protein stability index was 0.727 ± 0.041. Sequence QCASPRLSLGSP has a protein stability index of 0.703 ± 0.03. Sequence QCCPPEQLSNCS has a protein stability index of 0.681 ± 0.011. Sequence QCGYGKLSGGSQ has a protein stability index of 0.672 ± 0.034. For QCNYCVQNLSSR, the protein stability index was 0.695 ± 0.019. For QDSTNTPHTCRS, the protein stability index was 0.695 ± 0.06. For QEIRKEILLIKS, the protein stability index was 0.6 ± 0.098. With QERRDQGRKGQD the protein stability index was 0.673 ± 0.011. Sequence QESSDSRHATIR has a protein stability index of 0.624 ± 0.044. QFIGVGKVQRFG was tested, and the protein stability index was 0.59 ± 0.014. QFLGVGCLRGKR was tested, and the protein stability index was 0.692 ± 0.037. In the case of QFNVLPGQVGLV, the protein stability index is reported as 0.635 ± 0.027. With QFTLLEFVRSMG the protein stability index was 0.613 ± 0.032. QGGGDREVRVSE gave a protein stability index of 0.653 ± 0.058. For QGKRRREDGIGG, the protein stability index was 0.711 ± 0.072. With QGQAEREAERRS the protein stability index was 0.6732 ± 0.0059. For QGWDGSRRRPGL, the protein stability index was 0.706 ± 0.031. Sequence QGYWVKAVCASH has a protein stability index of 0.624 ± 0.023. For QIKGNNLNIDKG, the protein stability index was 0.6721 ± 0.0031. QIQRLGGGGHCG gave a protein stability index of 0.762 ± 0.1. In the case of QISLPDASLPPS, the protein stability index is reported as 0.67 ± 0.079. Work on QIYHIANPKILN yielded a protein stability index of 0.696 ± 0.055. In the case of QKDLDGSLANST, the protein stability index is reported as 0.692 ± 0.025. In the case of QKHAAFLKRSRE, the protein stability index is reported as 0.68 ± 0.024. Work on QKIIEDNQNTGR yielded a protein stability index of 0.663 ± 0.016. QKKKKNNKRQKQ was tested, and the protein stability index was 0.588 ± 0.023. Sequence QKKKVKETRNER has a protein stability index of 0.672 ± 0.034. With QKKNSPIPTNKN the protein stability index was 0.695 ± 0.04. With QKKSGKNGIRPK the protein stability index was 0.701 ± 0.065. With QKNKKRQTTYES the protein stability index was 0.662 ± 0.0069. QKNWWLETVLRG showed a protein stability index of 0.72 ± 0.023. In the case of QMKDGKTQKWQE, the protein stability index is reported as 0.569 ± 0.048. For QNKKEKRHKTKT, the protein stability index was 0.648 ± 0.02. In the case of QPGRGIAFVCFD, the protein stability index is reported as 0.735 ± 0.051. Work on QPHPPRAVLTGP yielded a protein stability index of 0.6975 ± 0.005. For QPLTYHPLLRRP, the protein stability index was 0.715 ± 0.051. Sequence QPPSCTSRPPYR has a protein stability index of 0.718 ± 0.096. In the case of QPRLLGPDRIDL, the protein stability index is reported as 0.662 ± 0.036. For QPTPRPSPRPAC, the protein stability index was 0.672 ± 0.025. Work on QQISQIFHKQGK yielded a protein stability index of 0.851 ± 0.13. QQTSGVQERICL showed a protein stability index of 0.744 ± 0.07. QREGPEKRTHGR showed a protein stability index of 0.709 ± 0.038. For QRGGVGWILGGV, the protein stability index was 0.675 ± 0.034. Work on QRGRGGRHVTDI yielded a protein stability index of 0.71 ± 0.069. With QRKGNLTKTEPV the protein stability index was 0.676 ± 0.1. In the case of QRKLTFIKRYRV, the protein stability index is reported as 0.67 ± 0.041. QRTQRGKQPGQR gave a protein stability index of 0.679 ± 0.08. QSHALSLRKGMP gave a protein stability index of 0.681 ± 0.052. Work on QSLPLSAPAPAC yielded a protein stability index of 0.697 ± 0.037. QSPTFLTPLALA gave a protein stability index of 0.653 ± 0.039. QSTRPHSHGCLG showed a protein stability index of 0.748 ± 0.051. Work on QTGGPDPSGPPK yielded a protein stability index of 0.693 ± 0.03.
